From paper PMC4470286 (Genes & Development, 2015) come the findings set out here.

B1: N-Fob1-GST, purified from yeast (domain or fragment, S. cerevisiae, UniProt O13329 1-429, looked up)
chain: MTKPRYNDVLFDDDDSVPSESVTRKSQRRKATSPGESRESSKDRLLILPSMGESYTEYVDSYLNLELLERGERETPIFLESLTRQLTQKIYELIKTKSLTADTLQQISDKYDGVVAENKLLFLQRQYYVDDEGNVRDGRNNDKIYCEPKHVYDMVMATHLMNKHLRGKTLHSFLFSHFANISHAIIDWVQQFCSKCNKKGKIKPLKEYKRPDMYDKLLPMERIHIEVFEPFNGEAIEGKYSYVLLCRDYRSSFMWLLPLKSTKFKHLIPVVSSLFLTFARVPIFVTSSTLDKDDLYDICEEIASKYGLRIGLGLKSSARFHTGGILCIQYALNSYKKECLADWGKCLRYGPYRFNRRRNKRTKRKPVQVLLSEVPGHNAKFETKRERVIENTYSRNMFKMAGGKGLIYLEDVNTFALANEADNSCNNNG
B2: C-terminal Fob1 with a kinase tag (from a pMAL fusion) (domain or fragment, S. cerevisiae, UniProt O13329 430-566, looked up)
chain: ILHNNNIGNDNFEEEVQKQFDLTEKNYIDEYDDLAHDSSEGEFEPNTLTPEEKPPHNVDEDRIESTGVAAPMQGTEEPEKGDQKESDGASQVDQSVEITRPETSYYQTLESPSTKRQKLDQQGNGDQTRDFGTSMEL
modifications: 32P-labeled
B3: Reb1 protein of Schizosaccharomyces pombe (natural protein, UniProt Q9P6H9 1-504, looked up)
chain: MDTSVLNPELQIHGFIGVDSLQSSRKRKNDFDDFPLNKGLKTNNNDYSGSIEPKFSPALSIKEDGKNDRNFEALMSLQAQDSNLSEQNTSIHLDALASSSIALGNDNVDSSAFLSKVNKGVNAMRNSTSNQTNDSILISPSEITNMDPFLKGSARWTAEHWDYLERRMQNFCQTYSLDHTQVADSLHEKRLHGPLSSLVKLLVQEMPSFTRRTILRHLRALYNIPGYEKYSRKNSSGRGDFGVQETAIISQEVHNFIMDQGWSEYQFCNQIWAGKCPKTIRMFYSNLYKKLSHRDAKSIYHHVRRAYNPFEDRCVWSKEEDEELRKNVVEHGKCWTKIGRKMARMPNDCRDRWRDVVRFGDKLKRNAWSLEEETQLLQIVAELRNREDLSSDINWTLVAQMLGTRTRLQCRYKFQQLTKAASKFELQENVWLLERIYDSLLNNGGKIHWENIVKEANGRWTRDQMLFQFINLKKMIPSYDNLPLLEATKSAIDDFKVVLSGFSN

In series [1] the target is T1, Fob1 (wild type) without GST, purified from yeast (S. cerevisiae, UniProt O13329 1-566).
T1 sequence (looked up): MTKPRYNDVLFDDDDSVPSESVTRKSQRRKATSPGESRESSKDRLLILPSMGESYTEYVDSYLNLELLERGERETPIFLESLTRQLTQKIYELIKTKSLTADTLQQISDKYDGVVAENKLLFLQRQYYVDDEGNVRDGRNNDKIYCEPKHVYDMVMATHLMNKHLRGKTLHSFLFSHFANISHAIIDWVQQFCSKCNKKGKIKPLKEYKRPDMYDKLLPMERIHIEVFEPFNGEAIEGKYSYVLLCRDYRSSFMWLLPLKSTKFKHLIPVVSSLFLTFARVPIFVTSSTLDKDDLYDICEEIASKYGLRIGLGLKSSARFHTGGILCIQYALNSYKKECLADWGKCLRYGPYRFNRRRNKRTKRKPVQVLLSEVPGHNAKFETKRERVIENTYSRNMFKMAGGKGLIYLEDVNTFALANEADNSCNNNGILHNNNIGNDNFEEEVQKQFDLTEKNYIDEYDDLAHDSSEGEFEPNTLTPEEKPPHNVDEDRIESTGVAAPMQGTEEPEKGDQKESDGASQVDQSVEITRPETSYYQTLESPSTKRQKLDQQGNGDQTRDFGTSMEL
The experiment in a line: ELISA. On the technique in general: An ELISA detects its analyte on a solid surface through an enzyme-linked reagent.

Series [2] addresses B1. The experiment in a line: pull-down.
Series [3] deals with the molecule itself. The experiment in a line: crystal structure.

As for B1, the binding result in series [1] is on record as “binds”.
In the case of B2, in series [2], the binding result is reported as “binds”.
Broadly, the stoichiometry N is a count of units in the complex or per binding partner. As to B3, in series [3], the “stoichiometry N” value worked out at 2.
